Results reported in PMC9634968.

B1: CXCR4: N15A (protein)
parent chain: MSIPLPLLQIYTSDNYTEEMGSGDYDSMKEPCFREENANFNKIFLPTIYSIIFLTGIVGNGLVILVMGYQKKLRSMTDKYRLHLSVADLLFVITLPFWAVDAVANWYFGNFLCKAVHVIYTVNLYSSVLILAFISLDRYLAIVHATNSQRPRKLLAEKVVYVGVWIPALLLTIPDFIFANVSEADDRYICDRFYPNDLWVVVFQFQHIMVGLILPGIVILSCYCIIISKLSHSKGHQKRKALKTTVILILAFFACWLPYYIGISIDSFILLEIIKQGCEFENTVHKWISITEALAFFHCCLNPILYAFLGAKFKTSAQHALTSVSRGSSLKILSKGKRGGHSSVSTESESSSFHSS
B2: CXCR4: N15A/N180A (protein)
parent chain: MSIPLPLLQIYTSDNYTEEMGSGDYDSMKEPCFREENANFNKIFLPTIYSIIFLTGIVGNGLVILVMGYQKKLRSMTDKYRLHLSVADLLFVITLPFWAVDAVANWYFGNFLCKAVHVIYTVNLYSSVLILAFISLDRYLAIVHATNSQRPRKLLAEKVVYVGVWIPALLLTIPDFIFANVSEADDRYICDRFYPNDLWVVVFQFQHIMVGLILPGIVILSCYCIIISKLSHSKGHQKRKALKTTVILILAFFACWLPYYIGISIDSFILLEIIKQGCEFENTVHKWISITEALAFFHCCLNPILYAFLGAKFKTSAQHALTSVSRGSSLKILSKGKRGGHSSVSTESESSSFHSS
B3: CXCR4: N180A (protein)
parent chain: MSIPLPLLQIYTSDNYTEEMGSGDYDSMKEPCFREENANFNKIFLPTIYSIIFLTGIVGNGLVILVMGYQKKLRSMTDKYRLHLSVADLLFVITLPFWAVDAVANWYFGNFLCKAVHVIYTVNLYSSVLILAFISLDRYLAIVHATNSQRPRKLLAEKVVYVGVWIPALLLTIPDFIFANVSEADDRYICDRFYPNDLWVVVFQFQHIMVGLILPGIVILSCYCIIISKLSHSKGHQKRKALKTTVILILAFFACWLPYYIGISIDSFILLEIIKQGCEFENTVHKWISITEALAFFHCCLNPILYAFLGAKFKTSAQHALTSVSRGSSLKILSKGKRGGHSSVSTESESSSFHSS

Test: Western blot after 125 nM CXCL12, 30 min, HEK 293T
Settings: glycan lost; control: wild type
In the case of B1, the degradation_or_half_life is reported as “increases”. In the case of B2, the degradation_or_half_life is reported as “increases”. In the case of B3, the degradation_or_half_life is reported as “no change”.
